Measurements published in patent US20040234998A1.

Assays:
Assay in all cases: cell-based or functional assay
[1] = target: 980603 (Röhm): Purified preparation of Frimond's Belase xylanase (identical to Röhm's) (Bacillus subtilis)
[2] = target: 980601 (BX): Purified preparation of Danisco's new bacterial xylanase expressed in E. coli (Bacillus subtilis) (UniProt P18429)
[3] = target: 980903 (XM1): Purified mutant of Bacillus sub. wild type xylanase expressed in E. coli

- Inhibation, % (flour 98002) [1]: 60.8%
- Inhibation, % (flour 98026) [1]: 61.3%
- Rest act., % (Avg) [1]: 39%
- Rest act., % (flour 98002) [1]: 39.2%
- Rest act., % (flour 98026) [1]: 38.7%
- Difference, % (average rest activity of 980601 against 980603) [2]: 25.6%
- Inhibation, % (flour 98002) [2]: 67%
- Inhibation, % (flour 98026) [2]: 75%
- OD 590 (+inhibitor), xylanase activity on Xylazyme [2]: 0.165 OD 590
- Residual activity, % [2]: 24.4%
- Rest act., % (Avg) [2]: 29%
- Rest act., % (flour 98002) [2]: 33%
- Rest act., % (flour 98026) [2]: 25%
- Vmax (Lineweaver-Burk plot, relative OD 590, with and without inhibitor) (relative OD 590) [2]: 1.19
- difference in inhibition between XM1 and XM2 [3]: 250%
- residual activity of XM1 relative to rest activity of XM2 [3]: 2.5 times
Substance: endogenous endo-β-1,4-xylanase inhibitor from wheat flour
